In patent publication US20260201008A1, “SECRETIN-DERIVED GLP1R SELECTIVE AGONISTS” (GUBRA A/S, priority 2023, published 2026):
Numbered stars: 1 amine (or outer) side, 2 acyl side, 3 side chain; on linkers, the order of the positions; unused ones are H or OH. Square brackets hold non-standard residues; d marks the D form. Side chains are listed from the residue outwards. Ends that are not written are not given here. * marks the point of attachment. C20 diacid = O=C(O)CCCCCCCCCCCCCCCCCCC(=O)*; γGlu = O=C(O)[C@H](CCC(=O)[*:2])N[*:1]; AEEA = NCCOCCOCC(=O)O; Aib = CC(C)(N)C(=O)O

B1: SEQ ID NO: 201 (peptide)
peptide: H[Aib]EGTFTSDYSYLLEGAALQRFIQWLV-NH2
modifications: N-terminus assumed
SMILES: CC[C@H](C)[C@H](NC(=O)[C@H](Cc1ccccc1)NC(=O)[C@H](CCCNC(=N)N)NC(=O)[C@H](CCC(N)=O)NC(=O)[C@H](CC(C)C)NC(=O)[C@H](C)NC(=O)[C@H](C)NC(=O)CNC(=O)[C@H](CCC(=O)O)NC(=O)[C@H](CC(C)C)NC(=O)[C@H](CC(C)C)NC(=O)[C@H](Cc1ccc(O)cc1)NC(=O)[C@H](CO)NC(=O)[C@H](Cc1ccc(O)cc1)NC(=O)[C@H](CC(=O)O)NC(=O)[C@H](CO)NC(=O)[C@@H](NC(=O)[C@H](Cc1ccccc1)NC(=O)[C@@H](NC(=O)CNC(=O)[C@H](CCC(=O)O)NC(=O)C(C)(C)NC(=O)[C@@H](N)Cc1c[nH]cn1)[C@@H](C)O)[C@@H](C)O)C(=O)N[C@@H](CCC(N)=O)C(=O)N[C@@H](Cc1c[nH]c2ccccc12)C(=O)N[C@@H](CC(C)C)C(=O)N[C@H](C(N)=O)C(C)C
B2: SEQ ID NO: 202 (peptide)
peptide: H[Aib]EGTFTSDYSFLLEGAALQRFIQWLV-NH2
modifications: N-terminus assumed
SMILES: CC[C@H](C)[C@H](NC(=O)[C@H](Cc1ccccc1)NC(=O)[C@H](CCCNC(=N)N)NC(=O)[C@H](CCC(N)=O)NC(=O)[C@H](CC(C)C)NC(=O)[C@H](C)NC(=O)[C@H](C)NC(=O)CNC(=O)[C@H](CCC(=O)O)NC(=O)[C@H](CC(C)C)NC(=O)[C@H](CC(C)C)NC(=O)[C@H](Cc1ccccc1)NC(=O)[C@H](CO)NC(=O)[C@H](Cc1ccc(O)cc1)NC(=O)[C@H](CC(=O)O)NC(=O)[C@H](CO)NC(=O)[C@@H](NC(=O)[C@H](Cc1ccccc1)NC(=O)[C@@H](NC(=O)CNC(=O)[C@H](CCC(=O)O)NC(=O)C(C)(C)NC(=O)[C@@H](N)Cc1c[nH]cn1)[C@@H](C)O)[C@@H](C)O)C(=O)N[C@@H](CCC(N)=O)C(=O)N[C@@H](Cc1c[nH]c2ccccc12)C(=O)N[C@@H](CC(C)C)C(=O)N[C@H](C(N)=O)C(C)C

target: human GLP-1 receptor (hGLP1R) (human, UniProt P43220 24-463); assay: cell-based or functional assay

| Binder | pEC50 hGLPR1 |
| --- | --- |
| H[Aib]EGTFTSDVSTLK([AEEA-AEEA-γGlu-C20 diacid])E[Aib]AA[Aib]QRFLEHLV-NH2 [SEQ ID NO: 32] | 10.6 -log M |
| H[Aib]EGTFTSDVSVLK([AEEA-AEEA-γGlu-C20 diacid])EEAA[Aib]QRFLEHLV-NH2 [SEQ ID NO: 35] | 10.8 -log M |
| H[Aib]EGTFTSDVSYLK([AEEA-AEEA-γGlu-C20 diacid])ETAATQRFLEHLV-NH2 [SEQ ID NO: 4] | 11.1 -log M |
| H[Aib]EGTFTSDVSFLK([AEEA-AEEA-γGlu-C20 diacid])ETAA[Aib]QRFLEHLV-NH2 [SEQ ID NO: 25] | 9 -log M |
| H[Aib]EGTFTSDVSRLK([AEEA-AEEA-γGlu-C20 diacid])ETAATQRFLEHLV-NH2 [SEQ ID NO: 26] | 10.9 -log M |
| H[Aib]EGTFTSDVSVLK([AEEA-AEEA-γGlu-C20 diacid])E[Aib]AAQQRFLEHLV-NH2 [SEQ ID NO: 40] | 10.7 -log M |
| B1 | 10.9 -log M |
| H[Aib]EGTFTSDVSELK([AEEA-AEEA-γGlu-C20 diacid])ELAAEQRFLEHLV-NH2 [SEQ ID NO: 36] | 10.5 -log M |
| H[Aib]EGTFTSDVSVLK([AEEA-AEEA-γGlu-C20 diacid])EEAAAQRFLEHLV-NH2 [SEQ ID NO: 28] | 10.7 -log M |
| H[Aib]EGTFTSDVSFLK([AEEA-AEEA-γGlu-C20 diacid])ETAAAQRFLEHLV-NH2 [SEQ ID NO: 44] | 10.5 -log M |
| H[Aib]EGTFTSDVSFLK([AEEA-AEEA-γGlu-C20 diacid])EFAA[Aib]QRFLEHLV-NH2 [SEQ ID NO: 27] | 10 -log M |
| H[Aib]EGTFTSDVSYLK([AEEA-AEEA-γGlu-C20 diacid])EFAA[Aib]QRFLEHLV-NH2 [SEQ ID NO: 46] | 10.3 -log M |
| H[Aib]EGTFTSDVSYLK([AEEA-AEEA-γGlu-C20 diacid])EEAATQRFLEHLV-NH2 [SEQ ID NO: 30] | 10.9 -log M |
| H[Aib]EGTFTSDVSELK([AEEA-AEEA-γGlu-C20 diacid])EFAAEQRFLEHLV-NH2 [SEQ ID NO: 31] | 10.4 -log M |
| H[Aib]EGTFTSDVSVLK([AEEA-AEEA-γGlu-C20 diacid])ETAAQQRFLEHLV-NH2 [SEQ ID NO: 41] | 11.1 -log M |
| H[Aib]EGTFTSDVSTLK([AEEA-AEEA-γGlu-C20 diacid])E[Aib]AAAQRFLEHLV-NH2 [SEQ ID NO: 43] | 11 -log M |

| Binder | pEC50 hGLPR1 |
| --- | --- |
| H[Aib]EGTFTSDVSRLK([AEEA-AEEA-γGlu-C20 diacid])ETAAAQRFLEHLV-NH2 [SEQ ID NO: 23] | 10.7 -log M |
| H[Aib]EGTFTSDVSRLK([AEEA-AEEA-γGlu-C20 diacid])ETAAQQRFLEHLV-NH2 [SEQ ID NO: 21] | 10.9 -log M |
| H[Aib]EGTFTSDVSTLK([AEEA-AEEA-γGlu-C20 diacid])EEAAQQRFLEHLV-NH2 [SEQ ID NO: 39] | 10.8 -log M |
| H[Aib]EGTFTSDVSELK([AEEA-AEEA-γGlu-C20 diacid])ETAA[Aib]QRFLEHLV-NH2 [SEQ ID NO: 45] | 10.7 -log M |
| H[Aib]EGTFTSDVSVLK([AEEA-AEEA-γGlu-C20 diacid])EFAAAQRFLEHLV-NH2 [SEQ ID NO: 29] | 10 -log M |
| H[Aib]EGTFTSDVSFLK([AEEA-AEEA-γGlu-C20 diacid])EEAA[Aib]QRFLEHLV-NH2 [SEQ ID NO: 37] | 10.9 -log M |
| H[Aib]EGTFTSDVSYLK([AEEA-AEEA-γGlu-C20 diacid])EEAAQQRFLEHLV-NH2 [SEQ ID NO: 47] | 10.8 -log M |
| H[Aib]EGTFTSDVSVLK([AEEA-AEEA-γGlu-C20 diacid])ELAAQQRFLEHLV-NH2 [SEQ ID NO: 33] | 10.2 -log M |
| B2 | 10.4 -log M |
| H[Aib]EGTFTSDVSRLK([AEEA-AEEA-γGlu-C20 diacid])EFAAQQRFLEHLV-NH2 [SEQ ID NO: 24] | 10.3 -log M |
| H[Aib]EGTFTSDVSRLK([AEEA-AEEA-γGlu-C20 diacid])ETAAEQRFLEHLV-NH2 [SEQ ID NO: 34] | 10.6 -log M |
| H[Aib]EGTFTSDVSRLK([AEEA-AEEA-γGlu-C20 diacid])EEAAEQRFLEHLV-NH2 [SEQ ID NO: 22] | 10.7 -log M |
| H[Aib]EGTFTSDVSTLK([AEEA-AEEA-γGlu-C20 diacid])ETAAEQRFLEHLV-NH2 [SEQ ID NO: 42] | 10.8 -log M |
| H[Aib]EGTFTSDVSRLK([AEEA-AEEA-γGlu-C20 diacid])ELAAQQRFLEHLV-NH2 [SEQ ID NO: 3] | 10.8 -log M |
| H[Aib]EGTFTSDVSFLK([AEEA-AEEA-γGlu-C20 diacid])EEAASQRFLEHLV-NH2 [SEQ ID NO: 38] | 10.5 -log M |

target: human secretin receptor (hSCTR) (human, UniProt P47872 23-440); assay: cell-based or functional assay
Sequence (P47872 23-440): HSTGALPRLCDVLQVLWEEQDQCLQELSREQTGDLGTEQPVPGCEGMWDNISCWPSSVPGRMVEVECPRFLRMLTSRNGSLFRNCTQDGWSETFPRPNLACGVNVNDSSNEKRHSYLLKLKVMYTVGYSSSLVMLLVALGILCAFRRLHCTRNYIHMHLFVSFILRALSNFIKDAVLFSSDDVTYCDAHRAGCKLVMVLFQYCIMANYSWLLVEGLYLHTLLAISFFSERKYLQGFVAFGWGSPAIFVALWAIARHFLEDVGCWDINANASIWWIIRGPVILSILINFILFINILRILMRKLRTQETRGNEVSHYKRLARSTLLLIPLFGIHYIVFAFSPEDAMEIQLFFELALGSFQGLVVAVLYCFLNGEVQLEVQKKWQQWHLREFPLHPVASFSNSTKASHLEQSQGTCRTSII

| Binder | pEC50 hSCTR |
| --- | --- |
| H[Aib]EGTFTSDVSTLK([AEEA-AEEA-γGlu-C20 diacid])E[Aib]AA[Aib]QRFLEHLV-NH2 [SEQ ID NO: 32] | 6.2 -log M |
| H[Aib]EGTFTSDVSVLK([AEEA-AEEA-γGlu-C20 diacid])EEAA[Aib]QRFLEHLV-NH2 [SEQ ID NO: 35] | 6.1 -log M |
| H[Aib]EGTFTSDVSYLK([AEEA-AEEA-γGlu-C20 diacid])ETAATQRFLEHLV-NH2 [SEQ ID NO: 4] | 7 -log M |
| H[Aib]EGTFTSDVSFLK([AEEA-AEEA-γGlu-C20 diacid])ETAA[Aib]QRFLEHLV-NH2 [SEQ ID NO: 25] | 5.1 -log M |
| H[Aib]EGTFTSDVSRLK([AEEA-AEEA-γGlu-C20 diacid])ETAATQRFLEHLV-NH2 [SEQ ID NO: 26] | 7.2 -log M |
| H[Aib]EGTFTSDVSVLK([AEEA-AEEA-γGlu-C20 diacid])E[Aib]AAQQRFLEHLV-NH2 [SEQ ID NO: 40] | 6.4 -log M |
| B1 | 7.9 -log M |
| H[Aib]EGTFTSDVSELK([AEEA-AEEA-γGlu-C20 diacid])ELAAEQRFLEHLV-NH2 [SEQ ID NO: 36] | 6.5 -log M |
| H[Aib]EGTFTSDVSVLK([AEEA-AEEA-γGlu-C20 diacid])EEAAAQRFLEHLV-NH2 [SEQ ID NO: 28] | 5.9 -log M |
| H[Aib]EGTFTSDVSFLK([AEEA-AEEA-γGlu-C20 diacid])ETAAAQRFLEHLV-NH2 [SEQ ID NO: 44] | 5.4 -log M |
| H[Aib]EGTFTSDVSFLK([AEEA-AEEA-γGlu-C20 diacid])EFAA[Aib]QRFLEHLV-NH2 [SEQ ID NO: 27] | 5.5 -log M |
| H[Aib]EGTFTSDVSYLK([AEEA-AEEA-γGlu-C20 diacid])EFAA[Aib]QRFLEHLV-NH2 [SEQ ID NO: 46] | 5.4 -log M |
| H[Aib]EGTFTSDVSYLK([AEEA-AEEA-γGlu-C20 diacid])EEAATQRFLEHLV-NH2 [SEQ ID NO: 30] | 6.6 -log M |
| H[Aib]EGTFTSDVSELK([AEEA-AEEA-γGlu-C20 diacid])EFAAEQRFLEHLV-NH2 [SEQ ID NO: 31] | 5.2 -log M |
| H[Aib]EGTFTSDVSVLK([AEEA-AEEA-γGlu-C20 diacid])ETAAQQRFLEHLV-NH2 [SEQ ID NO: 41] | 6.9 -log M |
| H[Aib]EGTFTSDVSTLK([AEEA-AEEA-γGlu-C20 diacid])E[Aib]AAAQRFLEHLV-NH2 [SEQ ID NO: 43] | 6.5 -log M |

| Binder | pEC50 hSCTR |
| --- | --- |
| H[Aib]EGTFTSDVSRLK([AEEA-AEEA-γGlu-C20 diacid])ETAAAQRFLEHLV-NH2 [SEQ ID NO: 23] | 6.8 -log M |
| H[Aib]EGTFTSDVSRLK([AEEA-AEEA-γGlu-C20 diacid])ETAAQQRFLEHLV-NH2 [SEQ ID NO: 21] | 6.7 -log M |
| H[Aib]EGTFTSDVSTLK([AEEA-AEEA-γGlu-C20 diacid])EEAAQQRFLEHLV-NH2 [SEQ ID NO: 39] | 6.5 -log M |
| H[Aib]EGTFTSDVSELK([AEEA-AEEA-γGlu-C20 diacid])ETAA[Aib]QRFLEHLV-NH2 [SEQ ID NO: 45] | 5.7 -log M |
| H[Aib]EGTFTSDVSVLK([AEEA-AEEA-γGlu-C20 diacid])EFAAAQRFLEHLV-NH2 [SEQ ID NO: 29] | 6.1 -log M |
| H[Aib]EGTFTSDVSFLK([AEEA-AEEA-γGlu-C20 diacid])EEAA[Aib]QRFLEHLV-NH2 [SEQ ID NO: 37] | 5.7 -log M |
| H[Aib]EGTFTSDVSYLK([AEEA-AEEA-γGlu-C20 diacid])EEAAQQRFLEHLV-NH2 [SEQ ID NO: 47] | 6.6 -log M |
| H[Aib]EGTFTSDVSVLK([AEEA-AEEA-γGlu-C20 diacid])ELAAQQRFLEHLV-NH2 [SEQ ID NO: 33] | 6.5 -log M |
| B2 | 7.4 -log M |
| H[Aib]EGTFTSDVSRLK([AEEA-AEEA-γGlu-C20 diacid])EFAAQQRFLEHLV-NH2 [SEQ ID NO: 24] | 6.8 -log M |
| H[Aib]EGTFTSDVSRLK([AEEA-AEEA-γGlu-C20 diacid])ETAAEQRFLEHLV-NH2 [SEQ ID NO: 34] | 6.4 -log M |
| H[Aib]EGTFTSDVSRLK([AEEA-AEEA-γGlu-C20 diacid])EEAAEQRFLEHLV-NH2 [SEQ ID NO: 22] | 6.4 -log M |
| H[Aib]EGTFTSDVSTLK([AEEA-AEEA-γGlu-C20 diacid])ETAAEQRFLEHLV-NH2 [SEQ ID NO: 42] | 5.5 -log M |
| H[Aib]EGTFTSDVSRLK([AEEA-AEEA-γGlu-C20 diacid])ELAAQQRFLEHLV-NH2 [SEQ ID NO: 3] | 7.1 -log M |
| H[Aib]EGTFTSDVSFLK([AEEA-AEEA-γGlu-C20 diacid])EEAASQRFLEHLV-NH2 [SEQ ID NO: 38] | 6 -log M |
